Reference: paper PMC5119734

What was measured:
[1] = molecular target: Group B Streptococcus glyceraldehyde 3-phosphate dehydrogenase, wild type (Streptococcus agalactiae (Group B Streptococcus)); assay: crystal structure; hanging drop vapor diffusion at 295 K, 20-28% PEG4000, 0.1 M MES pH 6.5; apo, mixed-holo, holo (2 mM NAD) and ternary (2 mM NAD, 11 mM DL-G3H) crystals; four subunits in the asymmetric unit
[2] = molecular target: Group B Streptococcus glyceraldehyde 3-phosphate dehydrogenase, wild type (Streptococcus agalactiae (Group B Streptococcus)); assay: SEC; Superdex 200 in 25 mM Hepes, 100 mM NaCl, 5 mM beta-mercaptoethanol, pH 7.35

## Group B Streptococcus glyceraldehyde 3-phosphate dehydrogenase, wild type (enzyme)
[1]
  stoichiometry N: 4
[2]
  stoichiometry N: 4
